Experimental data reported in publication PMC7617285, “Dehydrogenase versus oxidase function: the interplay between substrate binding and flavin microenvironment” (ACS catalysis, 2025).

System: T1, COc1cc(CO)ccc1O
T1 construct: SUMO tag cleaved for crystals; non-covalent FAD
Assay: purified protein
Format: biochemical, Novosphingobium sp.
Settings: molecular oxygen as acceptor, 35 °C, 50 mM Tris-HCl pH 9.0, 300 mM NaCl

Substance	Km	kcat	kcat/Km
nsVAO (vanillyl-alcohol oxidase from Novosphingobium sp.) (Novosphingobium sp.)	207 ± 28 µM	0.29 ± 0.01 s⁻¹	1400 M⁻¹ s⁻¹
nsVAO (vanillyl-alcohol oxidase from Novosphingobium sp.) (Novosphingobium sp.; T181D)	203 ± 22 µM	0.28 ± 0.01 s⁻¹	1400 M⁻¹ s⁻¹
